From paper doi:10.1101/773283 (bioRxiv, 2020) come the findings set out here.

Where “and” joins values, the source holds several entries; their conditions need not be identical. Identical values can stand only once.

Data set [1] deals with human vinculin D1 and D2 domains (D1D2) (human) (UniProt P18206). Briefly: SEC-MALS. On the technique in general: SEC sorts molecules by how far they enter the pores of the column.
The target in data set [2] is full-length human vinculin (HV) (human) (UniProt P18206). Description: ELISA. On the technique in general: In an ELISA, binding on a coated surface is turned into a signal by an enzyme label.
Data set [3] concerns the target human vinculin D1 and D2 domains (D1D2) (human) (UniProt P18206). Briefly: native gel or EMSA. Background: Mobility shift assays separate free from complexed probe on a gel.
The target in data set [4] is human vinculin D1 subdomain (HV 1-258) (human) (UniProt P18206). Briefly: native gel or EMSA.
The target in data set [5] is cysteine-clamped vinculin D1D2 Q68C A396C (human) (UniProt P18206). Description: native gel or EMSA.
Data set [6] concerns the target human vinculin HV 1-834 containing the D1-D4 domains (human) (UniProt P18206). Description: SEC-MALS.
Data set [7] concerns the target human vinculin D1 subdomain (HV 1-258) (human) (UniProt P18206). Description: SEC-MALS.
The data set “SEC-MALS” deals with the molecule itself. Description: SEC-MALS.

“IpaA derivative containing VBS1-2 (A524) (from UniProt P18010 524-633) (domain or fragment)”: in data set [1], the stoichiometry N (D1D2 per A524) was 1 and 2. In data set [2], this molecule showed an EC50 of 3.7 nM. The stoichiometry N in data set [3], in data set [4] and in data set [5] was 1 throughout.

For the molecule “IpaA derivative containing VBS1-3 (A483) (from UniProt P18010 483-633) (domain or fragment)”, the stoichiometry N (D1D4 per A483) in data set [6] was 1 and 2. In data set [1], this molecule had a stoichiometry N (D1D2 per A483) of 2. Also, the stoichiometry N in data set [7] was 3 D1 per A483; in data set [3] it was 1; in data set [4], 1; in data set [5], 1. The same molecule registered an EC50 in data set [2] of 6.1 nM. In data set [3], the stoichiometry N (A483 per D1D2) was 1 and 2.

For “human vinculin D1 and D2 domains (D1D2) (from UniProt P18206-2 1-492) (domain or fragment)”, the stoichiometry N in data set [1] was 3.

B1: human vinculin HV 1-834 containing the D1-D4 domains (domain or fragment, UniProt P18206-2 1-834, looked up)
chain: MPVFHTRTIESILEPVAQQISHLVIMHEEGEVDGKAIPDLTAPVAAVQAAVSNLVRVGKETVQTTEDQILKRDMPPAFIKVENACTKLVQAAQMLQSDPYSVPARDYLIDGSRGILSGTSDLLLTFDEAEVRKIIRVCKGILEYLTVAEVVETMEDLVTYTKNLGPGMTKMAKMIDERQQELTHQEHRVMLVNSMNTVKELLPVLISAMKIFVTTKNSKNQGIEEALKNRNFTVEKMSAEINEIIRVLQLTSWDEDAWASKDTEAMKRALASIDSKLNQAKGWLRDPSASPGDAGEQAIRQILDEAGKVGELCAGKERREILGTCKMLGQMTDQVADLRARGQGSSPVAMQKAQQVSQGLDVLTAKVENAARKLEAMTNSKQSIAKKIDAAQNWLADPNGGPEGEEQIRGALAEARKIAELCDDPKERDDILRSLGEISALTSKLADLRRQGKGDSPEARALAKQVATALQNLQTKTNRAVANSRPAKAAVHLEGKIEQAQRWIDNPTVDDRGVGQAAIRGLVAEGHRLANVMMGPYRQDLLAKCDRVDQLTAQLADLAARGEGESPQARALASQLQDSLKDLKARMQEAMTQEVSDVFSDTTTPIKLLAVAATAPPDAPNREEVFDERAANFENHSGKLGATAEKAAAVGTANKSTVEGIQASVKTARELTPQVVSAARILLRNPGNQAAYEHFETMKNQWIDNVEKMTGLVDEAIDTKSLLDASEEAIKKDLDKCKVAMANIQPQMLVAGATSIARRANRILLVAKREVENSEDPKFREAVKAASDELSKTISPMVMDAKAVAGNISDPGLQKSFLDSGYRILGAVAKVREA
For B1, the “stoichiometry N” value in the data set “SEC-MALS” stood at 3.

By EC50 is commonly meant the concentration giving half of the maximal effect. A lower EC50 goes with a more potent agent. By stoichiometry N is commonly meant the number of molecules, sites or subunits per partner or assembly.
